Assay results taken from the Immune Epitope Database (IEDB).

Tests used:
Test in all cases: IEDB peptide-MHC binding, purified MHC/competitive/radioactivity; filed as Kd, often an IC50 or EC50 that approximates it; ≥ and ≤ were set here for values at or beyond the usual limits of such assays
[1] = target: HLA-A*02:02
[2] = target: HLA-A*02:06
[3] = target: HLA-A*02:03
[4] = target: HLA-A*03:01
[5] = target: HLA-A*33:01
[6] = target: HLA-A*31:01
[7] = target: HLA-A*68:01
[8] = target: HLA-A*11:01
[9] = source organism: Vaccinia virus WR
[10] = source organism: Dengue virus 4 Philippines/H241/1956
[11] = source organism: Vaccinia virus Copenhagen
[12] = source organism: Triticum aestivum
[13] = source organism: SARS coronavirus Tor2

Sequence: STSPTRTWKV
- Kd [1, 9]: 0.397 µM
- Kd [2, 9]: 0.504 µM
- Kd [3, 9]: 0.717 µM

Sequence: YVLGIFLRKL
- Kd [2, 10]: 0.0326 µM

Sequence: RSAFNDDGIY
- Kd [4, 9]: ≥ 70.1 µM
- Kd [5, 9]: ≥ 70 µM
- Kd [6, 9]: ≥ 70 µM
- Kd [7, 9]: ≥ 31.8 µM
- Kd [8, 9]: ≥ 66.4 µM

Sequence: CVDIFTEGK
- Kd [4, 9]: 3.75 µM
- Kd [5, 9]: ≥ 77.7 µM
- Kd [6, 9]: 16.3 µM
- Kd [7, 9]: 0.0186 µM
- Kd [8, 9]: 0.0783 µM

Sequence: PASKKESVI
- Kd [1, 9]: 1.35 µM
- Kd [2, 9]: 10.3 µM
- Kd [3, 9]: 1.76 µM

Sequence: ILNFLDWIK
- Kd [4, 11]: 0.189 µM
- Kd [5, 11]: 1.29 µM
- Kd [6, 11]: 0.427 µM
- Kd [7, 11]: 0.158 µM
- Kd [8, 11]: 0.155 µM

Sequence: SMTIREFPRK
- Kd [4, 9]: 0.0101 µM
- Kd [5, 9]: 6.88 µM
- Kd [6, 9]: 0.0396 µM
- Kd [7, 9]: 1.25 µM
- Kd [8, 9]: 0.00318 µM

Sequence: LQQHNIVHGK
- Kd [4, 12]: 1.16 µM
- Kd [5, 12]: ≥ 70 µM
- Kd [6, 12]: 2.42 µM
- Kd [7, 12]: ≥ 47.9 µM
- Kd [8, 12]: 0.1 µM

Sequence: RAVKFAEESY
- Kd [4, 9]: 14.8 µM
- Kd [5, 9]: ≥ 70 µM
- Kd [6, 9]: ≥ 70 µM
- Kd [7, 9]: 7.29 µM
- Kd [8, 9]: 14.5 µM

Sequence: GIRCVSNLDI
- Kd [1, 9]: ≥ 20.1 µM
- Kd [2, 9]: ≥ 32.9 µM
- Kd [3, 9]: 3.87 µM

Sequence: KVEKYLPEVI
- Kd [1, 9]: 12.1 µM
- Kd [2, 9]: 0.734 µM
- Kd [3, 9]: 12.4 µM

Sequence: GLYNHNNTTY
- Kd [4, 9]: 0.021 µM
- Kd [5, 9]: 14.2 µM
- Kd [6, 9]: 7.95 µM
- Kd [7, 9]: 0.938 µM
- Kd [8, 9]: 0.0755 µM

Sequence: EIARIENEMK
- Kd [4, 9]: 5.61 µM
- Kd [5, 9]: 7.05 µM
- Kd [6, 9]: ≥ 70 µM
- Kd [7, 9]: 0.00711 µM
- Kd [8, 9]: 3.63 µM

Sequence: NIVTDLENR
- Kd [4, 9]: 9.09 µM
- Kd [5, 9]: 0.832 µM
- Kd [6, 9]: 1.74 µM
- Kd [7, 9]: 0.0219 µM
- Kd [8, 9]: 8.74 µM

Sequence: TQLYLGGMSY
- Kd [4, 13]: 0.0365 µM
- Kd [5, 13]: ≥ 40 µM
- Kd [6, 13]: 5.84 µM
- Kd [7, 13]: 1.35 µM
- Kd [8, 13]: 0.766 µM

Sequence: VAEHRFENMK
- Kd [4, 9]: 4.87 µM
- Kd [5, 9]: ≥ 70 µM
- Kd [6, 9]: ≥ 34.7 µM
- Kd [7, 9]: 5.73 µM
- Kd [8, 9]: 0.788 µM

Sequence: AVNKSNKPLK
- Kd [4, 9]: 1.09 µM
- Kd [5, 9]: ≥ 47 µM
- Kd [6, 9]: 1.56 µM
- Kd [7, 9]: 5.96 µM
- Kd [8, 9]: 0.147 µM

Sequence: YLRLYIILA
- Kd [1, 11]: 0.00826 µM
- Kd [2, 11]: 4.18 µM
- Kd [3, 11]: 0.0524 µM

Sequence: DVSLSAYIIR
- Kd [4, 9]: 2.41 µM
- Kd [5, 9]: 1.12 µM
- Kd [6, 9]: 0.387 µM
- Kd [7, 9]: 0.24 µM
- Kd [8, 9]: 0.609 µM

Sequence: FQGKFKKIVK
- Kd [4, 13]: 9.46 µM
- Kd [5, 13]: ≥ 24.7 µM
- Kd [6, 13]: 13.4 µM
- Kd [7, 13]: ≥ 24.2 µM
- Kd [8, 13]: 2.88 µM

Sequence: VLTILYYGA
- Kd [1, 9]: 0.00132 µM
- Kd [2, 9]: 6.24 µM
- Kd [3, 9]: 0.0175 µM

Sequence: NIVTFINDYA
- Kd [1, 9]: 0.0618 µM
- Kd [2, 9]: 0.351 µM
- Kd [3, 9]: 0.245 µM

Sequence: WQIEKASLI
- Kd [2, 10]: 0.0435 µM

Sequence: RQDYRRSINV
- Kd [1, 9]: 1.01 µM
- Kd [2, 9]: 2.22 µM
- Kd [3, 9]: 0.375 µM

Sequence: DVLPFDIKYI
- Kd [1, 9]: 1.2 µM
- Kd [2, 9]: 1.11 µM
- Kd [3, 9]: 0.188 µM

Sequence: TIDNPTKYIR
- Kd [4, 9]: 15.7 µM
- Kd [5, 9]: 4.26 µM
- Kd [6, 9]: 0.115 µM
- Kd [7, 9]: 0.158 µM
- Kd [8, 9]: 2.6 µM

Sequence: VSTGESSILR
- Kd [4, 9]: ≥ 24.9 µM
- Kd [5, 9]: 3.23 µM
- Kd [6, 9]: 1.39 µM
- Kd [7, 9]: 0.119 µM
- Kd [8, 9]: 0.204 µM

Sequence: DILSIIDAK
- Kd [4, 9]: 0.876 µM
- Kd [5, 9]: 0.896 µM
- Kd [6, 9]: ≥ 77.9 µM
- Kd [7, 9]: 0.0497 µM
- Kd [8, 9]: 0.428 µM

Sequence: PAGRPNYVK
- Kd [4, 9]: ≥ 31.9 µM
- Kd [5, 9]: 7.21 µM
- Kd [6, 9]: 0.012 µM
- Kd [7, 9]: 15.9 µM
- Kd [8, 9]: 0.21 µM

Sequence: VVYRGTTTYK
- Kd [4, 13]: 0.00574 µM
- Kd [5, 13]: 6.92 µM
- Kd [6, 13]: 0.26 µM
- Kd [7, 13]: 0.0116 µM
- Kd [8, 13]: 0.0158 µM

Sequence: TMPNESRVK
- Kd [4, 9]: 17.5 µM
- Kd [5, 9]: ≥ 77.7 µM
- Kd [6, 9]: ≥ 61.6 µM
- Kd [7, 9]: 2.04 µM
- Kd [8, 9]: 0.93 µM

Sequence: QIGEYTFEK
- Kd [4, 13]: 0.0487 µM
- Kd [5, 13]: ≥ 22.2 µM
- Kd [6, 13]: 1.92 µM
- Kd [7, 13]: 0.589 µM
- Kd [8, 13]: 0.00993 µM

Sequence: GSSKGNCAIK
- Kd [4, 9]: 0.025 µM
- Kd [5, 9]: ≥ 29.1 µM
- Kd [6, 9]: 3.48 µM
- Kd [7, 9]: 0.0231 µM
- Kd [8, 9]: 0.0261 µM

Sequence: AMPNLYKMQR
- Kd [4, 13]: 1.04 µM
- Kd [5, 13]: 11.7 µM
- Kd [6, 13]: 0.24 µM
- Kd [7, 13]: 1.97 µM
- Kd [8, 13]: 1.01 µM

Sequence: VLKAMHDKK
- Kd [4, 9]: 0.263 µM
- Kd [5, 9]: 0.977 µM
- Kd [6, 9]: 0.126 µM
- Kd [7, 9]: 3.42 µM
- Kd [8, 9]: 0.364 µM

Sequence: DLNSFEQLCI
- Kd ([2]; source organism: Homo sapiens): ≥ 128 µM

Sequence: VTPEYIKDLK
- Kd [4, 9]: 14.3 µM
- Kd [5, 9]: ≥ 70 µM
- Kd [6, 9]: 15.1 µM
- Kd [7, 9]: 0.374 µM
- Kd [8, 9]: 0.522 µM
